Measurements taken from US20060099210.

Columns and labels:
[1] = test system: GST (glutathione S-transferase expressed from the pGEX2TK plasmid; negative control) [GST: P08515]
[2] = test system: GST-2E11 (fusion protein between GST and a KCNQ2-15b polypeptide comprising exons 13, 14 and 15b; encoded by pGEX-2TK-2E11)
GST-2E11 (fusion protein between GST and a KCNQ2-15b polypeptide comprising exons 13, 14 and 15b; encoded by pGEX-2TK-2E11), sequence (chain, as listed by the source): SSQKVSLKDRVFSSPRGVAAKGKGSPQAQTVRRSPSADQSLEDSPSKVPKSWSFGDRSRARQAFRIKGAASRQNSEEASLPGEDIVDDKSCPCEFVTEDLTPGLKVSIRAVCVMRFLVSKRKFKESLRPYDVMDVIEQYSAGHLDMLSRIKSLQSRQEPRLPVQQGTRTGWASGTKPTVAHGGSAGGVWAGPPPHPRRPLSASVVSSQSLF

GST (glutathione S-transferase expressed from the pGEX2TK plasmid; negative control) [GST: P08515], sequence (P08515 whole entry, the tested form may be a part): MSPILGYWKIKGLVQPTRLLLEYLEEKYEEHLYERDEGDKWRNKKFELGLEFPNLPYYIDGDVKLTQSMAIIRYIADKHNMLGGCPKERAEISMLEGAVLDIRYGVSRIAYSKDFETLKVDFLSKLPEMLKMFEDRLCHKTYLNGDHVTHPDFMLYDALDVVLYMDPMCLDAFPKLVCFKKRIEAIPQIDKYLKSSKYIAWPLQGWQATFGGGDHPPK

recombinant GSK-3β kinase (New England Biolabs)
in vitro phosphorylation with [32P]γATP, SDS-PAGE and autoradiography (negative control with GST instead of GST-2E11) [1]: No bands appeared in the three lines corresponding to the negative controls | in vitro phosphorylation in the presence of 5 µg of CREB phosphopeptides as competitor [2]: A band did still appear at a position corresponding to the size of GST-2E11, but the intensity of the band was very significantly lower | in vitro phosphorylation with [32P]γATP, SDS-PAGE and autoradiography [2]: a band located at a position corresponding to a protein of a size of about 45 kD did appear

Protein Kinase A Catalytic Subunit (PKA from bovine heart, Sigma)
in vitro phosphorylation with [32P]γATP, SDS-PAGE and autoradiography (negative control with GST instead of GST-2E11) [1]: No bands appeared in the three lines corresponding to the negative controls | in vitro phosphorylation with [32P]γATP, SDS-PAGE and autoradiography [2]: a band located at a position corresponding to a protein of a size of about 45 kD did appear
